Columns and labels:
[1] = Heme reconstitution of apo wt and mutated RbMPOs (tryptophan fluorescence quenching); assay type: binding; conditions: heme reconstitution of apo enzyme; 1 μM enzyme, 50 mM sodium phosphate pH7.5, 25° C.
Method: Sample dilutions were performed in a 50 mM pH7.5 sodium phosphate buffer.

[2] = Steady-state kinetics by stopped-flow, NaSCN (hypothiocyanate formation, 240 nm); assay type: biochemical; conditions: for kss: SCN^− 5 mM, 267 nM RbMPO, H2O2 79 μM
Method: (§1) pH- and temperature-dependent studies were carried out for each substrate.
(§2) These temperatures were reached by using a stopped-flow coupled to a cryostat.
(§3) For temperature and pH measurements, RbMPO was set at the same concentration as in the determination of steady state kinetics parameters.

[3] = Steady-state kinetics by stopped-flow, NaBr (Tau-NHBr formation, 289 nm); assay type: biochemical; conditions: Br^− 500 mM, 267 nM RbMPO, H2O2 79 μM
Method: as §1, §2, §3

[4] = Steady-state kinetics by stopped-flow, NaCl (Tau-NHCl formation, 253 nm); assay type: biochemical; conditions: NaCl range (k2), 300 nM of enzyme and 79 μM of H2O2
Method: as §1, §2, §3

[5] = Steady-state kinetics by stopped-flow, H2O2 range at fixed (pseudo)-halogen ions; assay type: biochemical; conditions: wt RbMPO 267 nM
Method: For the halides Cl^− and Br^−, the ranges were not performed at halide saturation but at 500 and 100 mM respectively (data not shown).

[6] = Pre-steady state: return of wt RbMPO to its native state, Br^− range; assay type: biochemical; conditions: H2O2: 20 μM
Method: (§4) Kinetic parameters under pre-steady-state condition were performed with a Biologic SFM400 stopped-flow at 412 nm, 37° C. and with 50 mM sodium phosphate buffer at pH7.5. […] An exponential linear fit was applied to each kinetic using the following formula: […]
(§5) The return of the enzyme to its native state was studied by the impact of increasing concentrations of (pseudo)-halides substrates on compound I (FIG. 9B). […] It is the time difference (s) between the two characteristic steps that allowed the calculation of the values of the Vreturn(μM^−1.s^−1) values: […]

[7] = Pre-steady state: return of wt RbMPO to its native state, Cl^− range; assay type: biochemical; conditions: H2O2: 20 μM
Method: as §4, §5

[8] = Catalase activity (absorbance decay at 240 nm, stopped-flow); assay type: biochemical; conditions: for kss: catalase, 300 nM enzyme, pH 7.5, 500 μM H2O2; for catalase activity, in words: 2 μM wt RbMPO, 37° C.
Method: Catalase activity was measured using the stopped-flow set-up, which was configured to measure absorbance decay at 240 nm and at 37° C.

[9] = test system: E. coli strain ATCC 25922; assay: Microbicidal activity: bacterial growth kinetics in a microplate (A620nm, 16 h); assay type: cell-based; conditions: for inhibition of bacterial growth: glucose 14 mM, pH 7.4, 37° C.
Method: The microbicidal activity of RbMPO towards the E. coli strain ATCC 25922 was evaluated by two independent experiments.
E. coli 25922 were grown on TSB-agar for 16 h at 37° C. One colony is grown in 10 ml of TSB medium under stirring at 190 rpm at 37° C. The optical density (OD) of the bacterial preculture was measured at 620 nm in a spectrophotometer (Ultrospec 10, Biochrom). 25 ml of TSB medium was inoculated to obtain an OD of approximately 0.09. When the OD was between 1 and 2, a dilution in 10 mL of TSB medium was performed to obtain 2×10^6 CFU/ml. Bactericidal tests were performed in 96-well microplates under a final volume of 100 μl with 10^6 CFU/ml. The plate cover was treated with 0.05% TritonX−100 and 20% ethanol to prevent condensation and thus avoid misreading of the wells by the instrument. The solution was allowed to act on the lid for 10 minutes, then removed and dried under a class II biological safety cabinet. Each tested condition was performed at least in triplicate and each experiment was repeated at least 3 times. The kinetics was set to 16 h with a measurement at 620 nm every 15 minutes in a microplate reader (Wallac Victor 2,1420 Multilabel counter) thermostated at 37° C. [shaking duration: 10.0s; shaking speed: fast; shaking diameter: 0.5 mm; shaking type: orbital; measurement time: 0.2s; numbers of replicates: 60; time between replicates: 900 s; label: P620]. […] 5 mM bleach was used as a positive control and bacteria alone was used as a negative control. • By counting colonies on Petri dishes

[10] = test system: E. coli ATCC 25922; assay: Microbicidal activity: counting colonies on Petri dishes; assay type: cell-based; conditions: 1 h contact with 1.10^6 CFU/mL, 25 mM SCN^−, pH7.4; enzyme alone: wt RbMPO 300 nM or GOxaspniger 25 nM
Method: 10 mL of TSB medium (pH7.4) was inoculated with a freshly obtained colony of E. coli ATCC 25922, and the culture was incubated at 37° C. and 190 rpm overnight. In the morning, 25 mL of TSB medium were inoculated with the previous day's pre-culture to obtain an OD620 nm of 0.07 at TO. When the bacterial culture reached the exponential phase, the bacterial solution was diluted 10-fold in TSB in order to reach 1.10^6 CFU/mL. This dilution was then contacted with the enzyme solution for 1 hour (in a final volume of 1 mL). Further dilutions were then made (10^−1, 10^−4, 10−5, 10^−6). 100 μL of these solutions were spread on a Petri dish containing TSB agar medium and placed at 37° C. overnight. The next day, the surviving colonies were counted and the number of CFU/mL was calculated using the formula below: […]

B1: wt RbMPO: novel bacterial heme peroxidase (myeloperoxidase-catalase) of about 78 KDa from Rhodopirellula baltica, SEQ ID NO: 1, produced recombinantly in E. coli (protein, listed as Rhodopirellula baltica)
chain: MLFWSKRTRKHPGRKRRRLRSEQLESRQLLAADFGGYRHNIYDAEDVNDDGRVSAIDALLVINAMTSETSRDENVFTDVNGDGRRSALDALRVINRIERGDVFPIDTSGDEDLNTLLPEMPSEVRSIDGSGNNPNDHLWGSVGQRLIRMAPAAYGDGISTLAGANRPSAREVSNVLSAMNTSQVLNDRGLSAFVYVWGQFIDHDLGLTESDEHGEAIDISVPEGDLWFDPMGSGEAVIPMTRTPIADGTGTSVGNPAQQFNQITAFIDGSMVYGSDAATAERLRTFAGGRLAISDNGLLPMDESGMVIAGDVRASENVGLTAIQTLFVREHNRLADEIFAADPEATDEEIYQRARLVVASLIQSITYNEFLPALLGQRAMDSYRGYDASVNPGIANEFSTAAFRLGHSTLRDEVGFMSNDGRESKDEMELKDAFFHASMLEETGIDSLLKFDASVQAQEIDLAVVDSLRNFLFGPPGAGGLDLVAMNIQRGRDHGLSDYNTTRQAYGLDRVETFDQITGDVELQQKLASLYGTVDNIDLWVGLMAEDHQHDASVGELTGLIIADQFQRTRDGDRFFYKNVLTDSEVESIERSTLADLIERNTSVDGLQENVFFMQVELRGRVILASSIPPNTMPSEVREEEIRGVSGMAIELIDASGKLVDSTVSDQHGNYRFRALSETGDYQVRLSESGEAMDVLVAHGAERIRGLDFIVLA
k2 [1]: 1430 ± 74.4 M⁻¹ s⁻¹ | kss ([2]; 37° C., pH 4): 0.7 ± 0.04 s⁻¹ | kss ([2]; 37° C., pH 5): 5.4 ± 0.02 s⁻¹ | kss ([2]; 37° C., pH 6): 27.0 ± 0.06 s⁻¹ | kss ([2]; 37° C., pH 7): 42.8 ± 0.13 s⁻¹ | kss ([2]; 37° C., pH 8): 20.4 ± 0.03 s⁻¹ | kss ([2]; 37° C., pH 9): 3.1 ± 0.02 s⁻¹ | kss ([2]; 37° C., pH 10): 0 ± 0 s⁻¹ | kss ([2]; pH 7.5, 10° C.): 5.0 ± 0.01 s⁻¹ | kss ([2]; pH 7.5, 20° C.): 37.6 ± 0.10 s⁻¹ | kss ([2]; pH 7.5, 30° C.): 56.3 ± 0.10 s⁻¹ | kss ([2]; pH 7.5, 37° C.): 63.2 ± 0.11 s⁻¹ | kss ([2]; pH 7.5, 40° C.): 55.5 ± 0.14 s⁻¹ | kss ([2]; pH 7.5, 50° C.): 56.5 ± 0.14 s⁻¹ | kss ([2]; pH 7.5, 60° C.): 67.2 ± 0.22 s⁻¹ | substrate specificity ([2]; from steady-state NaSCN, NaBr and NaCl ranges): SCN^−>Br^−>Cl^− | kss ([3]; 37° C., pH 4): 0 ± 0 s⁻¹ | kss ([3]; 37° C., pH 5): 1.5 ± 0.004 s⁻¹ | kss ([3]; 37° C., pH 6): 14.5 ± 0.03 s⁻¹ | kss ([3]; 37° C., pH 7): 11.0 ± 0.02 s⁻¹ | kss ([3]; 37° C., pH 8): 4.8 ± 0.01 s⁻¹ | kss ([3]; 37° C., pH 9): 1.3 ± 0.004 s⁻¹ | kss ([3]; 37° C., pH 10): 0.8 ± 0.007 s⁻¹ | kss ([3]; pH 7.5, 10° C.): 9.5 ± 0.01 s⁻¹ | kss ([3]; pH 7.5, 20° C.): 23.4 ± 0.02 s⁻¹ | kss ([3]; pH 7.5, 30° C.): 24.8 ± 0.02 s⁻¹ | kss ([3]; pH 7.5, 37° C.): 19.5 ± 0.01 s⁻¹ | kss ([3]; pH 7.5, 40° C.): 29.1 ± 0.02 s⁻¹ | kss ([3]; pH 7.5, 50° C.): 21.1 ± 0.01 s⁻¹ | kss ([3]; pH 7.5, 60° C.): 37.8 ± 0.03 s⁻¹ | kss/[Cl^−] [4]: 5.46 ± 0.67 M⁻¹ s⁻¹ | KMapp ([5]; Br (100 mM)): 0.23 ± 0.21 mM | KMapp ([5]; SCN (5 mM)): 0.12 ± 0.04 mM | kreturn/K1/2 [6]: 607.77 ± 161.51 M⁻¹ s⁻¹ | kreturn/K1/2 [7]: 5169 ± 4872 M⁻¹ s⁻¹ | catalase activity kept ([8]; about 50° C. to about 60° C.): more than 80% | catalase activity kept ([8]; between 20° C. and 40° C.): more than 90% | kss ([8]; 10° C.): 2.04 ± 0.01 s⁻¹ | kss ([8]; 20° C.): 2.55 ± 0.02 s⁻¹ | kss ([8]; 30° C.): 2.75 ± 0.01 s⁻¹ | kss ([8]; 37°): 2.78 ± 0.01 s⁻¹ | kss ([8]; 40° C.): 2.64 ± 0.01 s⁻¹ | kss ([8]; 50° C.): 2.43 ± 0.01 s⁻¹ | kss ([8]; 60° C.): 2.39 ± 0.01 s⁻¹ | catalase activity, in words ([8]; pH4, 5, 8 and 9): no detectable catalase activity | catalase activity, in words ([8]; pH6 and pH10): negligible | excess of wt RbMPO over GOxaspniger required for 100% bactericidal effect ([9]; 10 nM GOxaspniger, 25 mM SCN^−, pH 7.4): at least 15 times | inhibition of bacterial growth ([9]; 150 nM wt RbMPO and 10 nM GOxaspniger (15:1 ratio), 25 mM SCN^−): 100% | inhibition of bacterial growth ([9]; 300 nM wt RbMPO and 25 nM GOxaspniger (12:1 ratio), 25 mM SCN^−): 100% | inhibition of bacterial growth ([9]; 300 nM wt RbMPO and 30 nM GOxaspniger (10:1 ratio), 25 mM SCN^−): 100% | bactericidal effect ([9]; 25 mM SCN (pH 7.4), between 10 and 30 nM GOxaspniger, from 300 nM wt RbMPO): 100% | surviving bacteria [10]: 13,850,000±4,454,773 CFU/mL

Reference: US20250297232A1, “BACTERIAL MYELOPEROXIDASE-CATALASE AND APPLICATIONS THEREOF” (priority 2022, published 2025)
